Measurements reported in publication PMC11677236.

Biological target: pyruvate kinase M2 (PKM2), endogenous (human (endogenous in A375 and G361)) (UniProt P14618)
Experiment: native gel or EMSA; BN-PAGE of cell lysates with β-actin as loading control; A375 with TIPE interference, G361 with TIPE overexpression; dimer and tetramer bands of PKM2

pyruvate kinase M2 (PKM2), endogenous, P14618 1-531 (enzyme; other documents disagree on this pair), sequence (P14618 whole entry): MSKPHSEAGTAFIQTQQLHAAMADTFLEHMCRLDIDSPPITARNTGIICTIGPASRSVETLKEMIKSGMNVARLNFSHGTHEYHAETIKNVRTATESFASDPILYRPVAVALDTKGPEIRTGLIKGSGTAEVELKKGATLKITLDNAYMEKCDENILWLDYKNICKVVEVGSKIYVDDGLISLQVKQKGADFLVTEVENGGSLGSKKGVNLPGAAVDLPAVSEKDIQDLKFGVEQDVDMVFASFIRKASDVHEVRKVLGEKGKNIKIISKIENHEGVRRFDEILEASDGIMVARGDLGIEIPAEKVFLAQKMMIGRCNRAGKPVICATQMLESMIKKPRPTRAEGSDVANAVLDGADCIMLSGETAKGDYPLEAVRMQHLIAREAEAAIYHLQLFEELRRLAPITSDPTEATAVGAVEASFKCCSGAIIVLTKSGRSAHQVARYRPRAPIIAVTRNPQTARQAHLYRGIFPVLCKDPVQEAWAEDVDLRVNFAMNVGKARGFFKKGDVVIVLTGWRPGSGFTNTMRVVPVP

A stoichiometry N of 2 was found for “pyruvate kinase M2 (PKM2), endogenous, P14618 1-531 (enzyme; other documents disagree on this pair)” in this work.
